Measured values from patent publication US20200283478A1 (Genentech, published 2020).
Bridge positions count the residues as written; N and C are the ends. Square brackets hold non-standard residues; d marks the D form. hArg = N=C(N)NCCCC[C@H](N)C(=O)O

B1: Compound 110 (Ac-cRLPWNLQRIGLPC-NH2) (peptide)
peptide: Ac-[dC]RLPWNLQRIGLPC-NH2
modifications: disulfide 1-14
SMILES: CC[C@H](C)[C@@H]1NC(=O)[C@H](CCCNC(=N)N)NC(=O)[C@H](CCC(N)=O)NC(=O)[C@H](CC(C)C)NC(=O)[C@H](CC(N)=O)NC(=O)[C@H](Cc2c[nH]c3ccccc23)NC(=O)[C@@H]2CCCN2C(=O)[C@H](CC(C)C)NC(=O)[C@H](CCCNC(=N)N)NC(=O)[C@H](NC(C)=O)CSSC[C@@H](C(N)=O)NC(=O)[C@@H]2CCCN2C(=O)[C@H](CC(C)C)NC(=O)CNC1=O
B2: Compound 99 (Ac-CRLPWNLQRIGLpC-NH2) (peptide)
peptide: Ac-CRLPWNLQRIGL[dP]C-NH2
modifications: disulfide 1-14
SMILES: CC[C@H](C)[C@@H]1NC(=O)[C@H](CCCNC(=N)N)NC(=O)[C@H](CCC(N)=O)NC(=O)[C@H](CC(C)C)NC(=O)[C@H](CC(N)=O)NC(=O)[C@H](Cc2c[nH]c3ccccc23)NC(=O)[C@@H]2CCCN2C(=O)[C@H](CC(C)C)NC(=O)[C@H](CCCNC(=N)N)NC(=O)[C@@H](NC(C)=O)CSSC[C@@H](C(N)=O)NC(=O)[C@H]2CCCN2C(=O)[C@H](CC(C)C)NC(=O)CNC1=O
B3: Compound 117 (Ac-CRLPWNLQ(homoR)IGLPC-NH2) (peptide)
peptide: Ac-CRLPWNLQ[hArg]IGLPC-NH2
modifications: disulfide 1-14
SMILES: CC[C@H](C)[C@@H]1NC(=O)[C@H](CCCCNC(=N)N)NC(=O)[C@H](CCC(N)=O)NC(=O)[C@H](CC(C)C)NC(=O)[C@H](CC(N)=O)NC(=O)[C@H](Cc2c[nH]c3ccccc23)NC(=O)[C@@H]2CCCN2C(=O)[C@H](CC(C)C)NC(=O)[C@H](CCCNC(=N)N)NC(=O)[C@@H](NC(C)=O)CSSC[C@@H](C(N)=O)NC(=O)[C@@H]2CCCN2C(=O)[C@H](CC(C)C)NC(=O)CNC1=O
B4: Compound 108 (Ac-CRlPWNLQRIGLPC-NH2) (peptide)
peptide: Ac-CR[dL]PWNLQRIGLPC-NH2
modifications: disulfide 1-14
SMILES: CC[C@H](C)[C@@H]1NC(=O)[C@H](CCCNC(=N)N)NC(=O)[C@H](CCC(N)=O)NC(=O)[C@H](CC(C)C)NC(=O)[C@H](CC(N)=O)NC(=O)[C@H](Cc2c[nH]c3ccccc23)NC(=O)[C@@H]2CCCN2C(=O)[C@@H](CC(C)C)NC(=O)[C@H](CCCNC(=N)N)NC(=O)[C@@H](NC(C)=O)CSSC[C@@H](C(N)=O)NC(=O)[C@@H]2CCCN2C(=O)[C@H](CC(C)C)NC(=O)CNC1=O
B5: Compound 109 (Ac-CrLPWNLQRIGLPC-NH2) (peptide)
peptide: Ac-C[dR]LPWNLQRIGLPC-NH2
modifications: disulfide 1-14
SMILES: CC[C@H](C)[C@@H]1NC(=O)[C@H](CCCNC(=N)N)NC(=O)[C@H](CCC(N)=O)NC(=O)[C@H](CC(C)C)NC(=O)[C@H](CC(N)=O)NC(=O)[C@H](Cc2c[nH]c3ccccc23)NC(=O)[C@@H]2CCCN2C(=O)[C@H](CC(C)C)NC(=O)[C@@H](CCCNC(=N)N)NC(=O)[C@@H](NC(C)=O)CSSC[C@@H](C(N)=O)NC(=O)[C@@H]2CCCN2C(=O)[C@H](CC(C)C)NC(=O)CNC1=O
B6: Compound 71 (Ac-CRLPWNLQRAGLPC-NH2) (peptide)
peptide: Ac-CRLPWNLQRAGLPC-NH2
modifications: disulfide 1-14
SMILES: CC(=O)N[C@H]1CSSC[C@@H](C(N)=O)NC(=O)[C@@H]2CCCN2C(=O)[C@H](CC(C)C)NC(=O)CNC(=O)[C@H](C)NC(=O)[C@H](CCCNC(=N)N)NC(=O)[C@H](CCC(N)=O)NC(=O)[C@H](CC(C)C)NC(=O)[C@H](CC(N)=O)NC(=O)[C@H](Cc2c[nH]c3ccccc23)NC(=O)[C@@H]2CCCN2C(=O)[C@H](CC(C)C)NC(=O)[C@H](CCCNC(=N)N)NC1=O
B7: Compound 72 (Ac-CRLPWNLQAIGLPC-NH2) (peptide)
peptide: Ac-CRLPWNLQAIGLPC-NH2
modifications: disulfide 1-14
SMILES: CC[C@H](C)[C@@H]1NC(=O)[C@H](C)NC(=O)[C@H](CCC(N)=O)NC(=O)[C@H](CC(C)C)NC(=O)[C@H](CC(N)=O)NC(=O)[C@H](Cc2c[nH]c3ccccc23)NC(=O)[C@@H]2CCCN2C(=O)[C@H](CC(C)C)NC(=O)[C@H](CCCNC(=N)N)NC(=O)[C@@H](NC(C)=O)CSSC[C@@H](C(N)=O)NC(=O)[C@@H]2CCCN2C(=O)[C@H](CC(C)C)NC(=O)CNC1=O
B8: Compound 76 (Ac-CRLPANLQRIGLPC-NH2) (peptide)
peptide: Ac-CRLPANLQRIGLPC-NH2
modifications: disulfide 1-14
SMILES: CC[C@H](C)[C@@H]1NC(=O)[C@H](CCCNC(=N)N)NC(=O)[C@H](CCC(N)=O)NC(=O)[C@H](CC(C)C)NC(=O)[C@H](CC(N)=O)NC(=O)[C@H](C)NC(=O)[C@@H]2CCCN2C(=O)[C@H](CC(C)C)NC(=O)[C@H](CCCNC(=N)N)NC(=O)[C@@H](NC(C)=O)CSSC[C@@H](C(N)=O)NC(=O)[C@@H]2CCCN2C(=O)[C@H](CC(C)C)NC(=O)CNC1=O
B9: Compound 74 (Ac-CRLPWNAQRIGLPC-NH2) (peptide)
peptide: Ac-CRLPWNAQRIGLPC-NH2
modifications: disulfide 1-14
SMILES: CC[C@H](C)[C@@H]1NC(=O)[C@H](CCCNC(=N)N)NC(=O)[C@H](CCC(N)=O)NC(=O)[C@H](C)NC(=O)[C@H](CC(N)=O)NC(=O)[C@H](Cc2c[nH]c3ccccc23)NC(=O)[C@@H]2CCCN2C(=O)[C@H](CC(C)C)NC(=O)[C@H](CCCNC(=N)N)NC(=O)[C@@H](NC(C)=O)CSSC[C@@H](C(N)=O)NC(=O)[C@@H]2CCCN2C(=O)[C@H](CC(C)C)NC(=O)CNC1=O
B10: Compound 75 (Ac-CRLPWALQRIGLPC-NH2) (peptide)
peptide: Ac-CRLPWALQRIGLPC-NH2
modifications: disulfide 1-14
SMILES: CC[C@H](C)[C@@H]1NC(=O)[C@H](CCCNC(=N)N)NC(=O)[C@H](CCC(N)=O)NC(=O)[C@H](CC(C)C)NC(=O)[C@H](C)NC(=O)[C@H](Cc2c[nH]c3ccccc23)NC(=O)[C@@H]2CCCN2C(=O)[C@H](CC(C)C)NC(=O)[C@H](CCCNC(=N)N)NC(=O)[C@@H](NC(C)=O)CSSC[C@@H](C(N)=O)NC(=O)[C@@H]2CCCN2C(=O)[C@H](CC(C)C)NC(=O)CNC1=O
B11: Compound 73 (Ac-CRLPWNLARIGLPC-NH2) (peptide)
peptide: Ac-CRLPWNLARIGLPC-NH2
modifications: disulfide 1-14
SMILES: CC[C@H](C)[C@@H]1NC(=O)[C@H](CCCNC(=N)N)NC(=O)[C@H](C)NC(=O)[C@H](CC(C)C)NC(=O)[C@H](CC(N)=O)NC(=O)[C@H](Cc2c[nH]c3ccccc23)NC(=O)[C@@H]2CCCN2C(=O)[C@H](CC(C)C)NC(=O)[C@H](CCCNC(=N)N)NC(=O)[C@@H](NC(C)=O)CSSC[C@@H](C(N)=O)NC(=O)[C@@H]2CCCN2C(=O)[C@H](CC(C)C)NC(=O)CNC1=O
B12: Compound 80 (Ac-CRLPWNLQRIGLGC-NH2) (peptide)
peptide: Ac-CRLPWNLQRIGLGC-NH2
modifications: disulfide 1-14
SMILES: CC[C@H](C)[C@@H]1NC(=O)[C@H](CCCNC(=N)N)NC(=O)[C@H](CCC(N)=O)NC(=O)[C@H](CC(C)C)NC(=O)[C@H](CC(N)=O)NC(=O)[C@H](Cc2c[nH]c3ccccc23)NC(=O)[C@@H]2CCCN2C(=O)[C@H](CC(C)C)NC(=O)[C@H](CCCNC(=N)N)NC(=O)[C@@H](NC(C)=O)CSSC[C@@H](C(N)=O)NC(=O)CNC(=O)[C@H](CC(C)C)NC(=O)CNC1=O
B13: Compound 77 (Ac-CRLAWNLQRIGLPC-NH2) (peptide)
peptide: Ac-CRLAWNLQRIGLPC-NH2
modifications: disulfide 1-14
SMILES: CC[C@H](C)[C@@H]1NC(=O)[C@H](CCCNC(=N)N)NC(=O)[C@H](CCC(N)=O)NC(=O)[C@H](CC(C)C)NC(=O)[C@H](CC(N)=O)NC(=O)[C@H](Cc2c[nH]c3ccccc23)NC(=O)[C@H](C)NC(=O)[C@H](CC(C)C)NC(=O)[C@H](CCCNC(=N)N)NC(=O)[C@@H](NC(C)=O)CSSC[C@@H](C(N)=O)NC(=O)[C@@H]2CCCN2C(=O)[C@H](CC(C)C)NC(=O)CNC1=O
B14: Compound 79 (Ac-CALPWNLQRIGLPC-NH2) (peptide)
peptide: Ac-CALPWNLQRIGLPC-NH2
modifications: disulfide 1-14
SMILES: CC[C@H](C)[C@@H]1NC(=O)[C@H](CCCNC(=N)N)NC(=O)[C@H](CCC(N)=O)NC(=O)[C@H](CC(C)C)NC(=O)[C@H](CC(N)=O)NC(=O)[C@H](Cc2c[nH]c3ccccc23)NC(=O)[C@@H]2CCCN2C(=O)[C@H](CC(C)C)NC(=O)[C@H](C)NC(=O)[C@@H](NC(C)=O)CSSC[C@@H](C(N)=O)NC(=O)[C@@H]2CCCN2C(=O)[C@H](CC(C)C)NC(=O)CNC1=O
B15: Compound 81 (Ac-CRLPWNLQRIGGGC-NH2) (peptide)
peptide: Ac-CRLPWNLQRIGGGC-NH2
modifications: disulfide 1-14
SMILES: CC[C@H](C)[C@@H]1NC(=O)[C@H](CCCNC(=N)N)NC(=O)[C@H](CCC(N)=O)NC(=O)[C@H](CC(C)C)NC(=O)[C@H](CC(N)=O)NC(=O)[C@H](Cc2c[nH]c3ccccc23)NC(=O)[C@@H]2CCCN2C(=O)[C@H](CC(C)C)NC(=O)[C@H](CCCNC(=N)N)NC(=O)[C@@H](NC(C)=O)CSSC[C@@H](C(N)=O)NC(=O)CNC(=O)CNC(=O)CNC1=O
B16: Compound 78 (Ac-CRAPWNLQRIGLPC-NH2) (peptide)
peptide: Ac-CRAPWNLQRIGLPC-NH2
modifications: disulfide 1-14
SMILES: CC[C@H](C)[C@@H]1NC(=O)[C@H](CCCNC(=N)N)NC(=O)[C@H](CCC(N)=O)NC(=O)[C@H](CC(C)C)NC(=O)[C@H](CC(N)=O)NC(=O)[C@H](Cc2c[nH]c3ccccc23)NC(=O)[C@@H]2CCCN2C(=O)[C@H](C)NC(=O)[C@H](CCCNC(=N)N)NC(=O)[C@@H](NC(C)=O)CSSC[C@@H](C(N)=O)NC(=O)[C@@H]2CCCN2C(=O)[C@H](CC(C)C)NC(=O)CNC1=O

Molecular target: T1, His-tagged, full-length PCSK9 (human, UniProt Q8NBP7 31-692)
T1 construct: secreted PCSK9 is autocatalytically cleaved into prodomain and catalytic domain + CRD (from S153), which stay associated; also called His-PCSK9; proprotein convertase subtilisin/kexin type 9; not shown: His tag
Experiment: TR-FRET competition (PCSK9/EGF(A) assay); competitor EGF(A)-Fc;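 further: proximity signal from anti-His APC on PCSK9 paired with anti-Fc europium on the Fc ligand, read as normalized TR-FRET ratio across compound dilutions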

T1 sequence (Q8NBP7 31-692 limits assumed): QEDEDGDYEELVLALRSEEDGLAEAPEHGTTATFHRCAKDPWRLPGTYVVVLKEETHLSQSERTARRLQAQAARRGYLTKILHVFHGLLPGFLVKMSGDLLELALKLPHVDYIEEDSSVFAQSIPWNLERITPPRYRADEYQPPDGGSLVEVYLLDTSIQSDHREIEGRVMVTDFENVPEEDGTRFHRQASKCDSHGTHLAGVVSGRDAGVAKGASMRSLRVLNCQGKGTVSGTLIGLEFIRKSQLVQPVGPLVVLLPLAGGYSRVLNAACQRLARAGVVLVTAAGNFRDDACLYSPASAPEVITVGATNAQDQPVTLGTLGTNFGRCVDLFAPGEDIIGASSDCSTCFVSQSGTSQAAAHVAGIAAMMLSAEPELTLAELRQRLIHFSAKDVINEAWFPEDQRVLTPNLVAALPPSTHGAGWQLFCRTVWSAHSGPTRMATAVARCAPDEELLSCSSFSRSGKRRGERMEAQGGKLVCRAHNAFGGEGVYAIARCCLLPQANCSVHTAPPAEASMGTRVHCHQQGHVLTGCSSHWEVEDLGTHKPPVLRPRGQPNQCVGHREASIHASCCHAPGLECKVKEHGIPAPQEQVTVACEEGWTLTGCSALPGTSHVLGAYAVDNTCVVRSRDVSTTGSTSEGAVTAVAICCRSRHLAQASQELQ

Binder	IC50 [µM]
B1	> 50
B2	> 50
B3	> 50
B4	> 50
B5	> 50
B6	> 50
B7	> 50
B8	> 50
B9	> 50
B10	> 50
B11	> 50
B12	> 50
B13	> 50
B14	> 50
B15	> 50
B16	> 50

Molecular target: T2, His-tagged PCSK9Δhelix (human, UniProt Q8NBP7 31-152; Q8NBP7 168-692)
T2 construct: Human PCSK9 M1-Q692 with an engineered TEV site, cut by TEV protease; new N-terminus of the catalytic domain is S-A168; also called His-PCSK9Δhelix; not shown: His tag
Experiment: TR-FRET competition (PCSK9Δhelix/Ab20 assay); competitor Ab20

T2 sequence (Q8NBP7 31-152, stated change not applied, chain 1 of 2): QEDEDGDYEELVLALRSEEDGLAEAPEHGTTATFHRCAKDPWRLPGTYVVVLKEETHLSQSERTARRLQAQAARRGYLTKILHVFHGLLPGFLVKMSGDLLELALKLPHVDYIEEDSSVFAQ
T2 sequence (Q8NBP7 other isoform, or with tags, fused parts or gaps mutant, chain 2 of 2): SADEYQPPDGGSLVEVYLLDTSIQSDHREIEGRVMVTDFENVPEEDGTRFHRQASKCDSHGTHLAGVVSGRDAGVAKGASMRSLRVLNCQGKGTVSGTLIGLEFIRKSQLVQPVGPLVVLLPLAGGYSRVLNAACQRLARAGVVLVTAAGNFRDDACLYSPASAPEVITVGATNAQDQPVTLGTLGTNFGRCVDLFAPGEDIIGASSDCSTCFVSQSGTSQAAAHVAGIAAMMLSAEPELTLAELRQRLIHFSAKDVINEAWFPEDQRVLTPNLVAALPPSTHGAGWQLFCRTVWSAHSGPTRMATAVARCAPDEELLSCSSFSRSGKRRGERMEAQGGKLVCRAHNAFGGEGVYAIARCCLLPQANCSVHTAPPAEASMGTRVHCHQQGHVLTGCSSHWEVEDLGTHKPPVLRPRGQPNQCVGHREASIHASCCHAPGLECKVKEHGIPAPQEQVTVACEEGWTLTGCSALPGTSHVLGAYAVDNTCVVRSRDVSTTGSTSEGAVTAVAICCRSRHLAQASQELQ

Binder	IC50 [µM]
B1	1.78
B2	1.3
B3	0.334
B4	28.2
B5	1.67
B6	49.5
B7	39.6
B8	49.5
B9	49.5
B10	49.5
B11	0.915
B12	0.65
B13	6.02
B14	1.53
B15	28.8
B16	5.56
